Reference: article PMC4617720, “Antigenic Characterization of the HCMV gH/gL/gO and Pentamer Cell Entry Complexes Reveals Binding Sites for Potently Neutralizing Human Antibodies” (PLoS Pathogens, 2015)

B1: HCMV UL130 (natural protein)
chain: SPWSTLTANQNPSPPWSKLTYSKPHDAATFYCPFLYPSPPRSPLQFSGFQRVSTGPECRNETLYLLYNREGQTLVERSSTWVKKVIWYLSGRNQTILQRMPRTASKPSDGNVQISVEDAKIFGAHMVPKQTKLLRFVVNDGTRYQMCVMKLESWAHVFRDYSVSFQVRLTFTEANNQTYTFCTHPNLIV
notes: source: 293EBNA cells, transfected with individual plasmids encoding each subunit; not shown: Strep-tag II, C-terminal, kept

How the values were obtained:
Conditions in all cases: both partners purified
[1] = target: T1, HCMV glycoprotein H (gH), soluble, terminated at amino acid 715 (human cytomegalovirus (HCMV), Merlin …, UniProt Q6SW67 24-715); experiment: cross-linking; purified unbound Pentamer (with UL131A-K27R), 36 pmol, 600-fold excess of DSSG-d0/d6 (links lysines up to 25 Å apart), 10 mM HEPES pH 7.5, 300 mM NaCl, RT, 30 min; cross-linked peptides identified by LC-MS/MS (xQuest)
T1 construct: source: 293EBNA cells, transfected with individual plasmids encoding each subunit
T1 sequence: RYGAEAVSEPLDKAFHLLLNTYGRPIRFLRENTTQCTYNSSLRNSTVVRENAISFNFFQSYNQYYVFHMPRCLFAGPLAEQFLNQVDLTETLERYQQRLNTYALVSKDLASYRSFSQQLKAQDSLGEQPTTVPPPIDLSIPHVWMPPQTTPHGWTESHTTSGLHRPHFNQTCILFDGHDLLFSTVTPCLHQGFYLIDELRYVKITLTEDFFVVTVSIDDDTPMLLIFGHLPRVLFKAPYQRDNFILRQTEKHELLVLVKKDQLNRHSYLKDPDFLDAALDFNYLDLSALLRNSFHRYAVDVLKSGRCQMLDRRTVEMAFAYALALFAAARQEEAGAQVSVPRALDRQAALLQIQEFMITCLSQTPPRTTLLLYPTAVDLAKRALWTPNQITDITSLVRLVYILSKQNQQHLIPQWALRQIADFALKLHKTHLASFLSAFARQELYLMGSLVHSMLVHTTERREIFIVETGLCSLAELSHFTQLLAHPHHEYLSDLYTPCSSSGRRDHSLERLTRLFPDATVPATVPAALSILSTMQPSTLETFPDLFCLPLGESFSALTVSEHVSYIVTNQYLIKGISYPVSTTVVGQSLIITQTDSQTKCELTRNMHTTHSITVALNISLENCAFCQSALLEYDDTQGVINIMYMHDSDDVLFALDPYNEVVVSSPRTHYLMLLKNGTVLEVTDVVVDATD

HCMV UL130 = target: B1; experiment: as above
[2] = target: T1, HCMV glycoprotein H (gH), soluble, …; experiment: non-reducing SDS-PAGE with western blot; purified Pentamer, non-boiled and non-reduced (-/-), blotted with rabbit polyclonal anti-Pentamer antibody

B1
binding result [1]: binds

B2: HCMV UL131A-K27R (natural protein)
chain: QCQRETAERNDYYRVPHYWDACSRALPDQTRYKYVEQLVDLTLNYHYDASHGLDNFDVLKRINVTEVSLLISDFRRQNRRGGTNKRTTFNAAGSLAPHARSLEFSVRLFAN
notes: also called UL131A-K27R mutation; source: 293EBNA cells, transfected with individual plasmids encoding each subunit
binding result (HCMV UL130): binds

B3: HCMV glycoprotein L (gL) (natural protein)
chain: AAVSVAPTAAEKVPAECPELTRRCLLGEVFEGDKYESWLRPLVNVTGRDGPLSQLIRYRPVTPEAANSVLLDEAFLDTLALLYNNPDQLRALLTLLSSDTAPRWMTVMRGYSECGDGSPAVYTCVDDLCRGYDLTRLSYGRSIFTEHVLGFELVPPSLFNVVVAIRNEATRTNRAVRLPVSTAAAPEGITLFYGLYNAVKEFCLRHQLDPPLLRHLDKYYAGLPPELKQTRVNLPAHSRYGPQAVDAR
notes: source: 293EBNA cells, transfected with individual plasmids encoding each subunit
binding result [2]: binds
